Measured values published in the supplement of paper PMC12042874.
± gives the uncertainty stated by the source.

Experiment: amyloid nucleation score (Sup35N fusion, yeast selection) (log enrichment); library NNK3; higher = more nucleation; inactive = no reads after selection
Method in brief: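 Three technical output replicates were used for random libraries. Psi-negative yeast expressing peptides of 20 random codons fused to Sup35N were induced with 100 μM copper sulfate for 24 hours and grown 7 days at 30°C on medium lacking adenine and uracil, and input and output plasmid inserts were Illumina-sequenced, excluding sequences with under 100 input reads. The nucleation score is the DiMSum log enrichment of output over input reads, centred on the mode score of non-aggregating sequences.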

Substance	amyloid nucleation score
AAEPEVDNSYTAGDSGTRGT	inactive
AALTPNPGVD	inactive
AANPFFTIYHLVRSYNVCRW	inactive
AAVSGDVTM	inactive
ACIFNLGGVHRCICCVLFNI	inactive
ACLSFVYALYPLCLRLIS	inactive
ADFDDHDYLVMCDWWINMHS	inactive
ADIDLVGVDCPWCGGLESFP	-0.342 ± 1.2
ADKRSMMWKFMFSRFCGRVT	inactive
ADRMDGDSTGFYSTNLRGYS	inactive
ADVNTL	inactive
AESIR	inactive
AEWGFVGGIYWYLRKVPRSH	inactive
AFFTFGAPCIQDNESGDRGG	inactive
AFIRFTVFNIGVKKYSCL	1.55 ± 0.065
AFKDNNDCLEHCCRRVTDLV	inactive
AFLPMCGLDFKWRYV	-0.22 ± 1.4
AFPCFIVY	inactive
AFSKRSSWNNHFICVNDVVQ	inactive
AGGSVYKIVEFSCLLFNQKY	inactive
AGPVF	inactive
AGQFPREQ	inactive
AGVDWQILV	inactive

Substance	amyloid nucleation score
AHFFVCCALSDRCRLRDVLQ	inactive
AHGTMGGNYGRNVQLDDRLN	inactive
AHLQVYFSSNVC	inactive
AHVALR	inactive
AIDLKLAKSEWGWSALGWFL	inactive
AIEQSLDWF	inactive
AILCTIVCNASWAEEQSA	1.09 ± 0.17
AIMLVSLC	inactive
AIRPKSGAWSHLCYASIG	inactive
AISYYYEHARLGWYGVELRP	inactive
AIYKGSWEPFGIDA	inactive
AKFSGVLKAYAVREATYCLG	inactive
AKHGLVDAQRALGISYQKNK	0.967 ± 0.11
ALFSKKFI	1.83 ± 0.059
ALMLDIFGRCTLRFRISGHG	inactive
ALNDLLAYSLSSKSFSYNWI	inactive
ALQYGNHRGCSYGCMITFVR	inactive
ALVLNLDRVWVSLTDGPWSD	inactive
ALVVSTWYSPGDMDLTPLHW	inactive
ALWWKRGVNMRNPSETRLAM	inactive
AMEEDIYLTNDYTIIM	0.45 ± 0.39
AMGLACGLDGSAVFGCMLTT	inactive
AMVKEFWVDSRHFIDRYSKC	inactive

Substance	amyloid nucleation score
ANAFTGIRCVQVRRRCSLDM	inactive
ANCCYPDLSCYVLYCGSSCL	2.41 ± 0.076
ANGLLSFSGRADGLQTNSGC	inactive
ANGRN	inactive
ANHDVLADVCRLSRRGVLRR	inactive
ANHNLYRDDDREYFFMLCY	inactive
ANLRSLTR	inactive
ANPGG	-1.05 ± 2.5
ANSNRRECQHNS	1.06 ± 0.16
ANSNVGSLF	inactive
ANVARFMYSFVKQALSLWVR	inactive
APFCVRGSWELRQVFRM	-0.13 ± 0.77
AQILYYLYYT	inactive
ARCECESSTRVSSLVYLSRE	inactive
ARHSCA	inactive
ARICVRAFKETCDYKLGCST	0.052 ± 0.66
ARIDCGSVELKECDLRPDYG	inactive
ARWNAI	inactive
ARWTMRAMLDWSIALSDHWV	inactive
ASCAWNGWTLIFLFYRCYFQ	inactive
ASCPLSKKWMELGKCAGPTH	inactive
ASDTVTCFAYAVKGLRRASG	inactive
ASILEFPRSTKSTSLGRSGR	inactive

Substance	amyloid nucleation score
ASLRWVLRLCRNLHTSSMET	-0.824 ± 1.5
ASLTGNFYTGWRFLALATMC	inactive
ASMLALCVLMHRLEPIRSFN	0.64 ± 0.2
ASRSMTGSLCLFAFMV	inactive
ASTEKGGPNDGTCWYPYCTA	inactive
ASTMDW	inactive
ATCWDEYDPRDPLA	inactive
ATIIPICSHLIDHSVSLDQG	inactive
AVCFRVLCFKLLTT	inactive
AVCYRLWFKM	inactive
AVISKDCDSYAIYHHVFHST	inactive
AVLCELVQDMFSLGVYVCHE	0.531 ± 0.32
AVLCVCIHRLPFYFPPLLKM	inactive
AVLWIVSGGTYESVDLNYWC	0.837 ± 0.13
AVMDGRNMSYSMYIRCCMWL	2.7 ± 0.074
AVMWYIPRDG	inactive
AVMYSCQYRDKWVEVAMVTS	inactive
AVNFCMLWGVYASSQKNLGF	0.585 ± 0.32
AVSRDCELYKVEYYLVQ	inactive
AVTDTNLLLFDVGYESLVHS	inactive
AVTFTHRFSRISPCHRRRWK	1.16 ± 0.1
AVWTCIGWDERTKMLYKFIR	inactive
AWELEKTTYRRGRAIVVHTP	inactive

Substance	amyloid nucleation score
AWFVEKLLCDLHSPSAVGAG	-0.565 ± 1.5
AWHCLDYYRSGSVIDRRVGM	inactive
AWKTFFVIYSS	0.406 ± 0.19
AWNLS	inactive
AWSLVGMHAVNNFHLKQEFL	inactive
AWTIRGQA	inactive
AWYKFVGRVMRDPYMEARLA	inactive
AYFIPYNTWFYKKGMARQFF	inactive
AYMYCVMTGSWVVKIRPGTR	inactive
AYSSVLINLSEYTLGIAVPM	0.062 ± 0.75
CAVALLNHRG	inactive
CAVYCNLNDVIGVFTILQRS	inactive
CAYRLNVGSVRFGKMHPRRS	inactive
CAYVENSCGTILVCALYCGS	inactive
CCCTNDMWTTGPNCS	-0.432 ± 0.76
CCFTLGAVSNCSLRGNSQTL	-1.2 ± 1.9
CCMYMISCRDN	inactive
CCQLGESTENGLFSDDWRCE	inactive
CCVCLCACRLFCSIVADYRR	inactive
CCWRNLYSFLRKGSYSRCM	inactive
CDAWILFFWHVVNISYRVDK	inactive
CDFALCSRWQVVYVKKQGQW	2.1 ± 0.07
CDIPFF	inactive

Substance	amyloid nucleation score
CDSWAYCRGCFRFML	-0.092 ± 1.1
CDTSFKIDELPYSASLHFAF	inactive
CDVCNM	inactive
CDVHTGRCDSCYTGNSTKFG	inactive
CDVLYRILRYIYSGKLLFSE	inactive
CDVPAKYLGKICDSYALSIF	inactive
CECVGFRSRYM	0.038 ± 0.3
CEGMKCYVVLTRLRLKKTRT	inactive
CEISLV	0.767 ± 0.16
CELLCFTGLSDYNTGSGVRR	inactive
CEMVCSTVIPIEVTSWLVMV	inactive
CEVHEGWIA	inactive
CFANSSYLIGTCLRCACNDR	2.37 ± 0.072
CFFIVGLARIFGLVPVA	0.804 ± 0.12
CFIVQWMLTLMCVFANCILT	inactive
CFKPILDLGSKCLFVLVVGK	inactive
CFLCFTPHSFHVCSI	inactive
CFRLPCVQESVPDKVLLTGS	inactive
CFTVVPGSVMF	inactive
CFVAGYRSIGLLRFITIFCV	inactive
CFVGHADLKFMGFHWMVGEC	inactive
CFYEGYWREITNMAFLILRP	inactive
CGAQALAQWYLYLLSHAIQY	inactive

Substance	amyloid nucleation score
CGLRIRWSNVLYSRRTCGFT	inactive
CGMRNLR	inactive
CGSWAYRY	0.435 ± 0.19
CGVSLDRWSNMQ	inactive
CGWMTHSEL	inactive
CGYCVFPFLNGITVGGRFGH	1.29 ± 0.11
CHASRSGIKLLLSIAAWTCI	inactive
CHHYHMWLRFGSVEWIRGMD	-0.052 ± 0.38
CHLYLPSQTSQH	inactive
CICLVDPERLKDKTI	inactive
CIEWHAQGDFFLMICLYCPD	inactive
CIFFRVGSFLNYFYASAWHS	inactive
CIKTCSCLSLPGLRFSPAIS	inactive
CIMALGSNVLFRLEN	1.51 ± 0.091
CIMFVFILLQYAFYIYILLV	inactive
CIPLLFWVWSSNVCVRLKLQ	inactive
CIRIYATFFKLRQSYNGTNG	1.03 ± 0.14
CISQVVVGSTHTAIGARAFA	inactive
CISSGGMLLNSFGSLWA	inactive
CIVAANHRRCNFLRLGRRLG	-0.654 ± 1.5
CIVLLLTPSLGDWYTEDDFL	inactive
